T1: PTPRD G203E K204E variant extracellular domain (human, UniProt P23468 21-1265)
T1 construct: extracellular domain; also called G203E/K204E double mutant; IG2 mutant
T1 sequence (looked up): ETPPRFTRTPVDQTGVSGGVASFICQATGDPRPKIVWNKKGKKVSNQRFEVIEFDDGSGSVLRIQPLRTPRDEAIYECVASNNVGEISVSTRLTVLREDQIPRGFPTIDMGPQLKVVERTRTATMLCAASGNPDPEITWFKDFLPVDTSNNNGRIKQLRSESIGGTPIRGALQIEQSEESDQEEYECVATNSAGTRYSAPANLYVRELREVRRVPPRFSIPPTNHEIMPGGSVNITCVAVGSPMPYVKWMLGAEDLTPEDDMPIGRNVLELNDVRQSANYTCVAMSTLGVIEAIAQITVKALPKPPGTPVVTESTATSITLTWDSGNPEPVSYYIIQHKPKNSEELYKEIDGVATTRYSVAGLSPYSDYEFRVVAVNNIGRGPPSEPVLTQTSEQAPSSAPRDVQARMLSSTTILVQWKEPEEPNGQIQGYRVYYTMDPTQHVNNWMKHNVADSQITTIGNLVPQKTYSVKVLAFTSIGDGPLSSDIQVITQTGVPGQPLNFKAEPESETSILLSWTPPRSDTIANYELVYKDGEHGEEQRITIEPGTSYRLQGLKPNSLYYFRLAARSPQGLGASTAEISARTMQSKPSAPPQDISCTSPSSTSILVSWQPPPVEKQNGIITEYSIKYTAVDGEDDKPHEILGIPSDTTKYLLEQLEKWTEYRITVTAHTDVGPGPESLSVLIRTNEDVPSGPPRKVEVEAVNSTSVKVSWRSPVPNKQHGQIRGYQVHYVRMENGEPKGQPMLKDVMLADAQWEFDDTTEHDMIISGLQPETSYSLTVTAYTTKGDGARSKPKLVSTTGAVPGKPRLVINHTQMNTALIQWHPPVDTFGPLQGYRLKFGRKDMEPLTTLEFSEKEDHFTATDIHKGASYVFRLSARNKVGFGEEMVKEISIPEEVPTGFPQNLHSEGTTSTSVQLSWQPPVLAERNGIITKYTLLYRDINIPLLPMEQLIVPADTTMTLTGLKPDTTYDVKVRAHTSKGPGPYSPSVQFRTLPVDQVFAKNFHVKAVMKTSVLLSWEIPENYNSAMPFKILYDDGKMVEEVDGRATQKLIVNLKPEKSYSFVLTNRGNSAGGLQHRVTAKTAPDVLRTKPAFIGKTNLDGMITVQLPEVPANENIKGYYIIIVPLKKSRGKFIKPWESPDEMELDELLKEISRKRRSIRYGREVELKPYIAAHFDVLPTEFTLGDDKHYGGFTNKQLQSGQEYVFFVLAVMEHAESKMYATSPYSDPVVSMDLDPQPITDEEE


Legend:
[1] = biological target: T1, PTPRD G203E K204E variant extracellular …; experiment: extracellular interaction screen: pentameric PTPRD variant ECD on ECD-Fc prey (FIG. 5L)
PTPRS expressed on cells = biological target: T2, PTPRS expressed on cells (human, UniProt Q13332 30-1948); experiment: cell surface interaction assay: streptavidin-tetramerized biotinylated ECD on transfected cells, immunofluorescence
T2 construct: whole, on cells; also called receptor-type tyrosine-protein phosphatase S

PTPRF expressed on cells = biological target: T3, PTPRF expressed on cells (human, UniProt P10586 30-1907); experiment: as above
T3 construct: whole, on cells; also called receptor-type tyrosine-protein phosphatase F

PTPRD expressed on cells = biological target: T4, PTPRD expressed on cells (human, UniProt P23468 21-1912); experiment: as above
T4 construct: whole, on cells; also called receptor-type tyrosine-protein phosphatase delta
T4 sequence (P23468 21-1912): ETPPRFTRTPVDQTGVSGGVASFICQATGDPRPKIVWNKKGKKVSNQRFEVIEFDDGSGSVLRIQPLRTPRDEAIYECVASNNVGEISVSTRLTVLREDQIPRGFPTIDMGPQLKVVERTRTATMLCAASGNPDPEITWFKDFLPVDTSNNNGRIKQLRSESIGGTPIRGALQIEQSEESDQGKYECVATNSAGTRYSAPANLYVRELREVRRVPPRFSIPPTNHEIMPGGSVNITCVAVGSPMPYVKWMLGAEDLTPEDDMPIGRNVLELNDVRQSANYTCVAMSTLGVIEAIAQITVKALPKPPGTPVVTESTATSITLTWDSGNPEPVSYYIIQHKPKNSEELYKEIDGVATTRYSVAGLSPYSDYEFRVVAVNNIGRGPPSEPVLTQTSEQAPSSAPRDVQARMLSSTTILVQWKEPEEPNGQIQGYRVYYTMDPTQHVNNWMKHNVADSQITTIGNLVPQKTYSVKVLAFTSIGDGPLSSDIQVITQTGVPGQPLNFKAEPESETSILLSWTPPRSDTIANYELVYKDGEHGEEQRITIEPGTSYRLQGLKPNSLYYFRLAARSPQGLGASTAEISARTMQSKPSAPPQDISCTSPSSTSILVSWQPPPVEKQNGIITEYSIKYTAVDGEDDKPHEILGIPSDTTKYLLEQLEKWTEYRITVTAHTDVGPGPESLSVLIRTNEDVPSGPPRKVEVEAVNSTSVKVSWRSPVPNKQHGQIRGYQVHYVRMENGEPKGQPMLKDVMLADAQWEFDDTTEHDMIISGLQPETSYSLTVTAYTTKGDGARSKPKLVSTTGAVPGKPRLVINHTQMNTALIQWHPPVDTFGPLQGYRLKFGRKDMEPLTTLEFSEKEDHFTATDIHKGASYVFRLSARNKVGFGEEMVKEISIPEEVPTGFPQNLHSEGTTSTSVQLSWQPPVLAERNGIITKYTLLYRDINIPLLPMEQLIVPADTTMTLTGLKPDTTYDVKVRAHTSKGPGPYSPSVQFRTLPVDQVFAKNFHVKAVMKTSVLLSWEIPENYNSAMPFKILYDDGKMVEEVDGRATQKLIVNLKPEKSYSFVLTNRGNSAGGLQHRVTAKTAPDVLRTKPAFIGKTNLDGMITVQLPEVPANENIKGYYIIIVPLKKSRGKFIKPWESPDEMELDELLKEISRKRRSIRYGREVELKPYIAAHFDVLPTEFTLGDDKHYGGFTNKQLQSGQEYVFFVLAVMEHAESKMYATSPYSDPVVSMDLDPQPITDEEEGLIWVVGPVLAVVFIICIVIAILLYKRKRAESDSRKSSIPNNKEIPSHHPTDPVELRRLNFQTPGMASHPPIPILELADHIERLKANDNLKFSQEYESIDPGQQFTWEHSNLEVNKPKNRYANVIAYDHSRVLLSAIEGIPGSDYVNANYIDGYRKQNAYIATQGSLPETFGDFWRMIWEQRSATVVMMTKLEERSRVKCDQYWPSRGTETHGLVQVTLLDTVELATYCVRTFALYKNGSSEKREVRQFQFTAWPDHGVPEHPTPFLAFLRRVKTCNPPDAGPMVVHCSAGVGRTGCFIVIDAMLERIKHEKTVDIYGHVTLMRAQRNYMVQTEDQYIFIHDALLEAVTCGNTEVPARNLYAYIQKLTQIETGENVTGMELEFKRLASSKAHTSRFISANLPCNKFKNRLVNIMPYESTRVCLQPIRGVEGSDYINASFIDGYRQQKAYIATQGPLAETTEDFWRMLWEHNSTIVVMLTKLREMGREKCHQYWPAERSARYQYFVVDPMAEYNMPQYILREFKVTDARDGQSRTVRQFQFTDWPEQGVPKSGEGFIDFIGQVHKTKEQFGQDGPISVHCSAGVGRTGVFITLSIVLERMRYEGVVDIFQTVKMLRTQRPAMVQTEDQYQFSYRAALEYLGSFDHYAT

T3 sequence (P10586 30-1907): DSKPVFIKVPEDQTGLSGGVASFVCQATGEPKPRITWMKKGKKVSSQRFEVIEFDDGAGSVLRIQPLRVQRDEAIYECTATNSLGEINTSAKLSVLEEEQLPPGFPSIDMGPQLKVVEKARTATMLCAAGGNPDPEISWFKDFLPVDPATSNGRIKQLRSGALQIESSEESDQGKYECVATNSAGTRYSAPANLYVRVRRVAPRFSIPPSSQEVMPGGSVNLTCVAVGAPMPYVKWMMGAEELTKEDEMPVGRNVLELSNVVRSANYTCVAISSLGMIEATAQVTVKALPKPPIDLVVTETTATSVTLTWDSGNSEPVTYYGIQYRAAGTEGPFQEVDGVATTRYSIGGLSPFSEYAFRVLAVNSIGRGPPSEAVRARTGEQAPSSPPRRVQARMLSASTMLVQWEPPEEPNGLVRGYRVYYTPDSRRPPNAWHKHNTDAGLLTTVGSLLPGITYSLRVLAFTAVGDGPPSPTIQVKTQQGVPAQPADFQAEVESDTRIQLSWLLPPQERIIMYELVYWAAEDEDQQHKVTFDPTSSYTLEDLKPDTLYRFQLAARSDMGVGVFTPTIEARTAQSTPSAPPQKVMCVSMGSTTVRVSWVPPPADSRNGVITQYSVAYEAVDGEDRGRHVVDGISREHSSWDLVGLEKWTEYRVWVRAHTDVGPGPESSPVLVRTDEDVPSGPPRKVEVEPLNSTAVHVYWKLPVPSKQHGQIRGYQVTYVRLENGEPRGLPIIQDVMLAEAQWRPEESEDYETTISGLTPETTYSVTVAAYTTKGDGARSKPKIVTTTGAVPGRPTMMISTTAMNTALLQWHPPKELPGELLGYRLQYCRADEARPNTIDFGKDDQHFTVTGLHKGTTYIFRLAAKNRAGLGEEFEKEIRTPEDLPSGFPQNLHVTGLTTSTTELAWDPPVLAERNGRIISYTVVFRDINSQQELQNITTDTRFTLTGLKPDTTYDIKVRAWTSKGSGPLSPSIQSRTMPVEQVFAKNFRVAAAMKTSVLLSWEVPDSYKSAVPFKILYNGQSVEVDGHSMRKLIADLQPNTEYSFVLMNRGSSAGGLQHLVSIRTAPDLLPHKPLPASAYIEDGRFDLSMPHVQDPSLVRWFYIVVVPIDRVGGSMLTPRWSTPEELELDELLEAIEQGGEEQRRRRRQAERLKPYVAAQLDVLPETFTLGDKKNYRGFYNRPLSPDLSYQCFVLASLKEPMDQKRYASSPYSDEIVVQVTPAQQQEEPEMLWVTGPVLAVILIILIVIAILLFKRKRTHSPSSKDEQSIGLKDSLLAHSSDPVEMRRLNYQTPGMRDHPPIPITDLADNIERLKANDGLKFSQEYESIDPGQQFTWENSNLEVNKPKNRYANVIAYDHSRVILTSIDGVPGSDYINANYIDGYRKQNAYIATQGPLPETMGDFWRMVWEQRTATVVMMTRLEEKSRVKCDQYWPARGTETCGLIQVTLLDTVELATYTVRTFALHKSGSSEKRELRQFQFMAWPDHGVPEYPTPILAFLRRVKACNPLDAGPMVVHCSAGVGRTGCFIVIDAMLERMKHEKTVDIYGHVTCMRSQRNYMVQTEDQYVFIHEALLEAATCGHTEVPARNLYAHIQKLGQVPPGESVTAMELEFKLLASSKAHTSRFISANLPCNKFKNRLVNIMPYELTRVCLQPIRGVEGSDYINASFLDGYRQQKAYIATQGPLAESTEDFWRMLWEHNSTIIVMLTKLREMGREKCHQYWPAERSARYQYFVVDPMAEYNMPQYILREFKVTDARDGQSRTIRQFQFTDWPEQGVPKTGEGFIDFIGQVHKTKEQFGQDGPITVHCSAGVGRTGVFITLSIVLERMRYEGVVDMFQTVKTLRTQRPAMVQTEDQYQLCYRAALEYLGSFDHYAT

binding result [1] | binding result (PTPRS expressed on cells) | binding result (PTPRF expressed on cells) | binding result (PTPRD expressed on cells) | Binder
no binding | binds | binds | binds | LRFN5 extracellular domain (receptor, human, UniProt Q96NI6 18-529, looked up, extracellular domain; Streptavidin tetramer in cell assay; ECD-Fc prey in the variant screen; also called LFRN5) QICPKRCVCQILSPNLATLCAKKGLLFVPPNIDRRTVELRLADNFVTNIKRKDFANMTSLVDLTLSRNTISFITPHAFADLRNLRALHLNSNRLTKITNDMFSGLSNLHHLILNNNQLTLISSTAFDDVFALEELDLSYNNLETIPWDAVEKMVSLHTLSLDHNMIDNIPKGTFSHLHKMTRLDVTSNKLQKLPPDPLFQRAQVLATSGIISPSTFALSFGGNPLHCNCELLWLRRLSREDDLETCASPPLLTGRYFWSIPEEEFLCEPPLITRHTHEMRVLEGQRATLRCKARGDPEPAIHWISPEGKLISNATRSLVYDNGTLDILITTVKDTGAFTCIASNPAGEATQIVDLHIIKLPHLLNSTNHIHEPDPGSSDISTSTKSGSNTSSSNGDTKLSQDKIVVAEATSSTALLKFNFQRNIPGIRMFQIQYNGTYDDTLVYRMIPPTSKTFLVNNLAAGTMYDLCVLAIYDDGITSLTATRVVGCIQFTTEQDYVRCHFMQSQFLGGTM
no binding | – | – | – | LRRC4B extracellular domain (receptor, human, UniProt Q9NT99 36-576, looked up, extracellular domain; ECD-Fc prey; also called NGL-3; netrin-G ligand-3) AGGGGVAVTSAAGGGSPPATSCPVACSCSNQASRVICTRRDLAEVPASIPVNTRYLNLQENGIQVIRTDTFKHLRHLEILQLSKNLVRKIEVGAFNGLPSLNTLELFDNRLTTVPTQAFEYLSKLRELWLRNNPIESIPSYAFNRVPSLRRLDLGELKRLEYISEAAFEGLVNLRYLNLGMCNLKDIPNLTALVRLEELELSGNRLDLIRPGSFQGLTSLRKLWLMHAQVATIERNAFDDLKSLEELNLSHNNLMSLPHDLFTPLHRLERVHLNHNPWHCNCDVLWLSWWLKETVPSNTTCCARCHAPAGLKGRYIGELDQSHFTCYAPVIVEPPTDLNVTEGMAAELKCRTGTSMTSVNWLTPNGTLMTHGSYRVRISVLHDGTLNFTNVTVQDTGQYTCMVTNSAGNTTASATLNVSAVDPVAAGGTGSGGGGPGGSGGVGGGSGGYTYFTTVTVETLETQPGEEALQPRGTEKEPPGPTTDGVWGGGRPGDAAGPASSSTTAPAPRSSRPTEKAFTVPITDVTENALKDLDDVMKTTK

Source: patent publication US20220119490A1 (Genentech, published 2022)
